Biological target: the molecule itself
Test: SEC; Superdex 200 Increase 10/300 GL, 100 mM KCl, 25 mM Tris pH 8.0, in detergent (DM by the methods, DDM by the results); peak at 11 mL

B1: KvAP wild type (voltage-gated potassium channel from Aeropyrum pernix) (natural protein)
chain: GGRVRNIGDVMEHPLVELGVSYAALLSVIVVVVEYTMQLSGEYLVRLYLVDLILVIILWADYAYRAYKSGDPAGYVKKTLYEIPALVPAGLLALIEGHLAGLGLFRLVRLLRFLRILLIISRGSKFLSAIADAADKIRFYHLFGAVMLTVLYGAFAIYIVEYPDPNSSIKSVFDALWWAVVTATTVGYGDVVPATPIGKVIGIAVMLTGISALTLLIGTVSNMFQKILVGEPEPSCSPAKLAEMVSSMSEEEFEEFVRTLKNLRRLENSMK
notes: KvAP, voltage-gated potassium channel of Aeropyrum pernix, wild type; also called Kv channel from Aeropyrum pernix; source: E. coli C43 (DE3), pET21a-derived vector, solubilised in detergent, purified (Ni-NTA, SEC on Superdex 200 Increase)
stoichiometry N: 4
